Source: patent publication US20200347143A1 (GLENMARK PHARMACEUTICALS S A, published 2020)

T1: human OX40 on cells (human, UniProt P43489 29-277)
T1 sequence (looked up): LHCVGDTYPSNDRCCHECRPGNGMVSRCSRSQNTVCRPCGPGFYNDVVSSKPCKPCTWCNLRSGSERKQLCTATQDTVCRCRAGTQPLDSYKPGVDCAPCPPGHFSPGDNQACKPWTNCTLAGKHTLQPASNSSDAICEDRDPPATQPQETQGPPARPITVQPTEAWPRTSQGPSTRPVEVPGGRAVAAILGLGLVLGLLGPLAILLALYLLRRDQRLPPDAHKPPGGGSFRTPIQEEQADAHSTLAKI


Assays:
human OX40 on cells = target: T1, human OX40 on cells; assay: cell-based or functional assay
rat OX40-Fc = rat OX40-Fc (rat); assay: ELISA on coated rat OX40-Fc
Chain of rat OX40-Fc (rat) (chain, as listed by the source limits assumed): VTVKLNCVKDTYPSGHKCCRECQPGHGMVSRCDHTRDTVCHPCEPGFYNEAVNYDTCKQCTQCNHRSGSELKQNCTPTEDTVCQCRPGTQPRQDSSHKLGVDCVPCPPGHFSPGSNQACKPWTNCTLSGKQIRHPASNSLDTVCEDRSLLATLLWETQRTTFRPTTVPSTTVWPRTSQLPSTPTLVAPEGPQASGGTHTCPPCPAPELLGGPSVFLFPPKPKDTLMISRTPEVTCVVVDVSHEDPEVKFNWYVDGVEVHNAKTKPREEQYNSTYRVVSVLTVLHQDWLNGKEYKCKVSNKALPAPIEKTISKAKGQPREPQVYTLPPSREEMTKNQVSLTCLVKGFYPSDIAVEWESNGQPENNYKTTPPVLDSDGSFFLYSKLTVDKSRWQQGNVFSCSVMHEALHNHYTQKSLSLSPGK
Description: These constructs were expressed in HEK293-EBNA1 cells and purified using protein A. Then, human and rat OX40-Fc were tested in ELISA and Biacore to determine antibody cross-reactivity. For the ELISA, 96 well-microtiter plates (Costar USA, distributor VWR AG, Nyon, Switzerland) were coated with 100 μl of recombinant human or rat OX40-Fc at 2 μg/ml in PBS. Plates were incubated overnight at 4° C. and were then blocked with PBS 2% BSA (Bovine Serum Albumine, PAA Laboratories, Pasching, Austria) at room temperature (RT) for one hour. The blocking solution was removed and the purified antibodies were added at 10 μg/ml in PBS 2% BSA. The plates were incubated at RT for 1 hour, then washed 5 times with PBS 0.01% Tween-20 (Sigma-Aldrich Chemie GmbH, Buchs, Switzerland). […] Plates were incubated for 1 hour at RT, washed 5 times with PBS 0.01% Tween-20 and the TMB substrate (Bio-rad Laboratories AG, Reinach, Switzerland) was added to the plates and the reaction stopped after 5 minutes by adding H₂SO₄. Absorbance was then read at 450 nm by a microplate reader (Biotek, USA; distributor: WITTEC AG, Littau, Switzerland). Biacore experiments were specifically conducted with Hexa-hzG3V9 and Hexa-hz1D10v1 which are dAb-Fc fusion proteins. […] Binding of human and cyno OX40-Fc molecules was determined by successively injecting these proteins on the 4 flow-paths (flow-path 1 and 3 being used as references) at a concentration of 200 nM and a flow rate of 30 uL/min for 240 seconds. Regeneration between the two injections was done using 3M MgCl2, at 30 uL/min for 60 seconds. Using these two approaches, human/rat OX40 binding was assessed (table 16).

| % donor responder (>2), SEB assay, IL-2 release (human OX40 on cells) | Mean, normalized IL-2 release, SEB assay (human OX40 on cells) | binding result (rat OX40-Fc) | Binder |
| --- | --- | --- | --- |
| 18% | 1.87 | no binding (tested: 10 µg/ml) | 11D4 IgG2 (antibody, V domains shown) VH: EVQLVESGGGLVQPGGSLRLSCAASGFTFSSYSMNWVRQAPGKGLEWVSYISSSSSTIDYADSVKGRFTISRDNAKNSLYLQMNSLRDEDTAVYYCARESGWYLFDYWGQGTLVTVSS VL: DIQMTQSPSSLSASVGDRVTITCRASQGISSWLAWYQQKPEKAPKSLIYAASSLQSGVPSRFSGSGSGTDFTLTISSLQPEDFATYYCQQYNSYPPTFGGGTKVEIKR |
| 100% | 48.4 | – | 2H6_hzG3v9_8 (bispecific antibody, human IgG1, kappa, L234A L235A) heavy: not shown light: DIQLTQSPSSLSASVGDRVTITCRASESVDNYGISFMNWFQQKPGKAPKLLIYAASNQKSGVPSRFSGSGSGTDFTLTISSLQPEDFATYFCQQSKEVPLTFGQGTKVEIKRTVAAPSVFIFPPSDEQLKSGTASVVCLLNNFYPREAKVQWKVDNALQSGNSQESVTEQDSKDSTYSLSSTLTLSKADYEKHKVYACEVTHQGLSSPVTKSFNRGEC |
| 8% | 1.32 | – | Tetra-21 (bispecific antibody, human IgG1, kappa, L234A L235A) heavy 1: QVQLVQSGAEVKKPGASVKVSCKASGYTFTRYYMHWVRQAPGQGLEWMGWIYPGEGSTKYAQKFQGRVTMTRDTSISTAYMELSRLRSDDTAVYYCAREYGNYDYWGQGTLVTVSSASTKGPSVFPLAPSSKSTSGGTAALGCLVKDYFPEPVTVSWNSGALTSGVHTFPAVLQSSGLYSLSSVVTVPSSSLGTQTYICNVNHKPSNTKVDKKVEPKSCDKTHTCPPCPAPEAAGGPSVFLFPPKPKDTLMISRTPEVTCVVVDVSHEDPEVQFKWYVDGVEVHNAKTKPREEQYNSTFRVVSVLTVLHQDWLNGKEYKCKVSNKALPAPIEKTISKTKGQPREPAVYTLPPSREEMTKNQVKLVCLVTGFYPSDIAVEWESSGQPENNYYTTPPMLDSDGSFSLVSWLNVDKSRWQQGNIFSCSVMHEALHNRFTQKSLSLSPGGGGGTEVQLVESGGGLVQPGGSLRLSCAVSGYSITSDYAWNWIRQAPGKCLEWMGYISYSGSTAYNPSLKSRITISRDTSKNTFYLQMSSLRAEDTAVYYCARGPYNYLAYWGQGTLVTVSSGGGGSGGGGSGGGGSDIQLTQSPSSLSASVGDRVTITCRASESVDNYGISFMNWFQQKPGKAPKLLIYAASNQKSGVPSRFSGSGSGTDFTLTISSLQPEDFATYFCQQSKEVPLTFGCGTKVEIL heavy 2: EVQLVESGGGLVQPGGSLRLSCAVSGYSITSDYAWNWIRQAPGKCLEWMGYISYSGSTAYNPSLKSRITISRDTSKNTFYLQMNSLRAEDTAVYYCARGPYNYLAYWGQGTLVTVSSGGGGSGGGGSGGGGSDIQLTQSPSSLSASVGDRVTITCRASESVDNYGISFMNWFQQKPGKAPKLLIYAASNQKSGVPSRFSGSGSGTDFTLTISSLQPEDFATYFCQQSKEVPLTFGCGTKVEIKRTGGGGTDKTHTCPPCPAPEAAGGPSVFLFPPKPKDTLMISRTPEVTCVVVDVSHEDPEVKFNWYVDGVEVHNAKTKPREEQYNSTYRVVSVLTVLHQDWLNGKEYKCKVSNKALPAPIEKTISKAKGQPREPEVATFPPSRDELTKNQVTLVCLVTGFYPSDIAVEWESNGQPENNYKTDPPLLESQGSFALSSRLRVDKSRWQQGNVFSCSVMHEALHNHYTQKSLSLSPGGGGGTQVQLVQSGAEVKKPGASVKVSCKASGYTFTRYYMHWVRQAPGQGLEWMGWIYPGEGSTKYAQKFQGRVTMTRDTSISTAYMELSRLRSDDTAVYYCAREYGNYDYWGQGTLVTVSSASTKGPSVFPLAPSSKSTSGGTAALGCLVKDYFPEPVTVSWNSGALTSGVHTFPAVLQSSGLYSLSSVVTVPSSSLGTQTYICNVNHKPSNTKVDKKVEPKSC light: not shown |
| 0% | 0.96 | – | Tri-8 (bispecific antibody, human IgG1, kappa, L234A L235A) heavy 1: QVQLVQSGAEVKKPGASVKVSCKASGYTFTRYYMHWVRQAPGQGLEWMGWIYPGEGSTKYAQKFQGRVTMTRDTSISTAYMELSRLRSDDTAVYYCAREYGNYDYWGQGTLVTVSSASTKGPSVFPLAPSSKSTSGGTAALGCLVKDYFPEPVTVSWNSGALTSGVHTFPAVLQSSGLYSLSSVVTVPSSSLGTQTYICNVNHKPSNTKVDKKVEPKSCDKTHTCPPCPAPEAAGGPSVFLFPPKPKDTLMISRTPEVTCVVVDVSHEDPEVQFKWYVDGVEVHNAKTKPREEQYNSTFRVVSVLTVLHQDWLNGKEYKCKVSNKALPAPIEKTISKTKGQPREPAVYTLPPSREEMTKNQVKLVCLVTGFYPSDIAVEWESSGQPENNYYTTPPMLDSDGSFSLVSWLNVDKSRWQQGNIFSCSVMHEALHNRFTQKSLSLSPGGGGGTEVQLVESGGGLVQPGGSLRLSCAVSGYSITSDYAWNWIRQAPGKCLEWMGYISYSGSTAYNPSLKSRITISRDTSKNTFYLQMSSLRAEDTAVYYCARGPYNYLAYWGQGTLVTVSSGGGGSGGGGSGGGGSDIQLTQSPSSLSASVGDRVTITCRASESVDNYGISFMNWFQQKPGKAPKLLIYAASNQKSGVPSRFSGSGSGTDFTLTISSLQPEDFATYFCQQSKEVPLTFGCGTKVEIL heavy 2: QVQLVQSGAEVKKPGASVKVSCKASGYTFTRYYMHWVRQAPGQGLEWMGWIYPGEGSTKYAQKFQGRVTMTRDTSISTAYMELSRLRSDDTAVYYCAREYGNYDYWGQGTLVTVSSASTKGPSVFPLAPSSKSTSGGTAALGCLVKDYFPEPVTVSWNSGALTSGVHTFPAVLQSSGLYSLSSVVTVPSSSLGTQTYICNVNHKPSNTKVDKKVEPKSCDKTHTCPPCPAPEAAGGPSVFLFPPKPKDTLMISRTPEVTCVVVDVSHEDPEVKFNWYVDGVEVHNAKTKPREEQYNSTYRVVSVLTVLHQDWLNGKEYKCKVSNKALPAPIEKTISKAKGQPREPEVATFPPSRDELTKNQVTLVCLVTGFYPSDIAVEWESNGQPENNYKTDPPLLESQGSFALSSRLRVDKSRWQQGNVFSCSVMHEALHNHYTQKSLSLSPGK light: not shown |
